Source: PMC11384143, “A pan-allelic human SIRPα-blocking antibody, ES004-B5, promotes tumor killing by enhancing macrophage phagocytosis and subsequently inducing an effective T-cell response” (Antibody Therapeutics, 2024)
One block for each binder: values may come before it.

Key:
[1] = molecular target: T1, cynomolgus SIRPα overexpressed on CHOK1/cSIRPα cells (Macaca fascicularis, UniProt A0A2K5VYQ9); assay: flow cytometry on cells; serial dilutions of antibody on CHOK1 cells overexpressing SIRPα, 1 h at 4°C; Alexa Fluor 647 anti-human IgG Fcγ secondary antibody; MFI; details: one partner purified
T1 construct: signal regulatory protein alpha (SIRPα), cynomolgus monkey, overexpressed on CHO-K1 cells; also called cynomolgus SIRPα-expressing cells; source: CHOK1/cSIRPα cell line, bought: Chempartner

[2] = molecular target: T2, 6 × His tagged cynomolgus SIRPα ECD recombinant protein (Macaca fascicularis, UniProt A0A2K5VYQ9); assay: SPR; Biacore T200, 25°C; antibody captured on anti-human IgG (Fc) CM5 chip (80 ± 12 RU); 6 × His tagged SIRP analyte 30–0.9375 nM in 1× HBS-EP+; 1:1 binding model; details: both partners purified
T2 construct: signal regulatory protein alpha (SIRPα), cynomolgus monkey, extracellular domain; also called cynomolgus monkey SIRPα; source: bought: KACTUS

[3] = molecular target: T3, 6 × His tagged huSIRPγ ECD recombinant protein (Homo sapiens (Human)., UniProt Q9P1W8); assay: as above; details: both partners purified
T3 construct: signal regulatory protein gamma (SIRPγ, SIRP beta2), human, extracellular domain; also called signal regulatory protein gamma; SIRP beta2; source: bought: KACTUS
T3 sequence (Q9P1W8 29-360): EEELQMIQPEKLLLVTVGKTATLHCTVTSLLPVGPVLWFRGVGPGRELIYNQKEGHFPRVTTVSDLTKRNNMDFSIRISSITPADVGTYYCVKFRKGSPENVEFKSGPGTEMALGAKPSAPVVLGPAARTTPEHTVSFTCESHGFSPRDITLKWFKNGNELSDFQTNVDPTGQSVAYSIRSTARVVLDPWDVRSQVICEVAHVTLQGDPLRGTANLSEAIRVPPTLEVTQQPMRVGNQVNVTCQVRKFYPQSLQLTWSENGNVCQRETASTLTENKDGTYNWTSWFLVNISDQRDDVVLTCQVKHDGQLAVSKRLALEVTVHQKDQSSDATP

binding result [1]: no binding
B1: HEFLB (an analogue of BI 765063) (antibody, V domains shown)
VH: EVQLVQSGAEVKKPGESLRISCKASGYSFTSYWVHWVRQMPGKGLEWMGNIDPSDSDTHYSPSFQGHVTLSVDKSISTAYLQLSSLKASDTAMYYCVRGGTGTLAYFAYWGQGTLVTVSS
VL: DVVMTQSPLSLPVTLGQPASISCRSSQSLVHSYGNTYLYWFQQRPGQSPRLLIYRVSNRFSGVPDRFSGSGSGTDFTLKISRVEAEDVGVYYCFQGTHVPYTFGGGTKVEIK
notes: human IgG4; also called analogue of BI 765063 (OSE-172)
binding result [2]: no binding (tested: 30 nM (highest analyte concentration))
binding result [3]: no binding (tested: 30 nM (highest analyte concentration))

binding result [3]: binds
B2: hu1H9 (an analogue of FSI-189, Gilead) (antibody, V domains shown)
VH: QVQLVQSGAEVKKPGASVKVSCKASGYTFTSYWITWVKQAPGQGLEWIGDIYPGSGSTNHIEKFKSKATLTVDTSISTAYMELSRLRSDDTAVYYCATGYGSSYGYFDYWGQGTLVTVSS
VL: DIQMTQSPSSLSASVGDRVTITCRASENIYSYLAWYQQKPGKAPKLLIYTAKTLAEGVPSRFSGSGSGTDFTLTISSLQPEDFATYYCQHQYGPPFTFGQGTKLEIK
notes: human IgG4
